Where “and” joins values, the source holds several entries; their conditions need not be identical. Equal entries are not always repeated.
Columns and labels:
[1] = molecular target: T1, human CASKIN2 SH3 domain (aa. 284-348), wild type (human, UniProt Q8WXE0 284-348); assay: other fluorescence titration; peptide titrated into 1 μM SH3 domain; 10 mM Tris-HCl, pH 7.5, 150 mM NaCl, 0.05 % sodium azide; intrinsic tryptophan fluorescence, excitation 280 nm, emission 340 nm; fitted to a 1:1 protein to peptide complex; settings: both partners purified
T1 construct: CASKIN2, human, SH3 domain, residues 284-348, UniProt Q8WXE0; Cloned into BamHI/XhoI of pGEX4T2; Isotopically labelled (15N and/or 13C) for NMR; also called wild type CASKIN2 SH3 domain; WT

[2] = molecular target: T2, CASKIN2 SH3 domain SH3-6x mutant (K290Y, H296E, A300E, R319W, Y336L, I341F) (human, UniProt Q8WXE0 284-348, K290Y | H296E | A300E | R319W | Y336L | I341F); assay: as above; settings: both partners purified
T2 construct: Made by Quikchange from the wild type construct; PDB 2KE9 is the wild type parent; also called 6x CASKIN-SH3 domain mutant
T2 sequence (Q8WXE0 284-348 K290Y/H296E/A300E/R319W/Y336L/I341F): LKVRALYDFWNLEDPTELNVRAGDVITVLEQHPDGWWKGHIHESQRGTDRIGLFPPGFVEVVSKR

T1 sequence (Q8WXE0 284-348): as the sequence (Q8WXE0 284-348 K290Y/H296E/A300E/R319W/Y336L/I341F) above, with Y7K, E13H, E17A, W36R, L53Y, F58I counted along it

B1: UBPY peptide YTPMVRENKPP (peptide)
peptide: YTPMVRENKPP
notes: peptide derived from the protein UBPY, corresponding to the UBPY ligand in the STAM2 SH3 domain structure PDB 1UJ0; contains an RxxKP motif; also called Class-III UBPY peptide; STAM2 ligand; source: synthetic peptide (Canpeptide, Montreal; > 90 % purity)
B1 was tested, and the Kd [1] was 39000 ± 6000 nM and the Kd [2] was 460 nM and 220 nM.

— article PMC5020537, “A lack of peptide binding and decreased thermostability suggests that the CASKIN2 scaffolding protein SH3 domain may be vestigial” (BMC Structural Biology, 2016)
